Data published in the supplement of paper PMC10126150.
± gives the standard deviation of the averaged measurements.

Tested on: ATP
Test: switch fluorescence ratio, 500 uM ATP over buffer (Cy3 cluster intensity, sum of 5 cycles each) (fold (ratio)); higher = stronger signal-on switching upon ATP binding; sequences stand for … in TCGTCGGCAGCGTCAGATGTGTATAAGAGACAGTTTTTTTTTTTTTTTTTTTTTTTTT…TC
Conditions: aptamer strand: ATP DNA aptamer (quencher-CACCTGGGGGAGTATTGCGGAGGAAGG + anchor), 100 nM annealed; ATP concentration: 500 uM
Procedure, shortened: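 Cy3-labelled switching-strand clusters on a modified Illumina MiSeq flow-cell were annealed to 100 nM quencher-labelled ATP aptamer, imaged in selection buffer, then imaged after 15 min with 500 uM ATP at 22 °C. Five buffer/ATP cycles ran, with NaOH stripping and re-annealing between them. The fluorescence ratio is summed target-cycle over summed buffer-cycle Cy3 intensity per cluster, averaged per switch-domain sequence. Clusters outside 100-1000 RFU were excluded.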
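Note: ATP exposure 15 min at 22 °C before imaging.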

Row | Sequence | switch fluorescence ratio
1 | GGTACTTCTA | 1.01 ± 0.018
2 | GGTACTTGTA | 1 ± 0.016
3 | GGTAGAAACT | 1.04 ± 0.014
4 | GGTAGACCGC | 0.987 ± 0.053
5 | GGTAGAGTAA | 1 ± 0.033
6 | GGTAGATAGT | 0.979 ± 0.029
7 | GGTAGCAGTT | 1 ± 0.026
8 | GGTAGCCGGT | 1.01 ± 0.041
9 | GGTAGCGTCT | 1.06 ± 0.09
10 | GGTAGGACTC | 1 ± 0.026
11 | GGTAGGATAG | 0.9728 ± 0.0016
12 | GGTAGGGAAC | 0.975 ± 0.029
13 | GGTAGGGAAT | 0.974 ± 0.029
14 | GGTAGGGCGG | 1.01 ± 0.068
15 | GGTAGGGGGA | 1.02 ± 0.046
16 | GGTATAAATG | 1 ± 0.019
17 | GGTATAAGGT | 1.006 ± 0.01
18 | GGTATACGCA | 1.14 ± 0.028
19 | GGTATAGAGC | 1.02 ± 0.05
20 | GGTATAGCAC | 1.07 ± 0.016
21 | GGTATAGCGC | 1.01 ± 0.051
22 | GGTATAGGAT | 0.991 ± 0.025
23 | GGTATAGTAG | 0.99304 ± 0.00031
24 | GGTATAGTTA | 1.02 ± 0.037
25 | GGTATATAGG | 1.01 ± 0.027

Row | Sequence | switch fluorescence ratio
26 | GGTATCCGGC | 1.03 ± 0.088
27 | GGTATCGGAA | 0.984 ± 0.055
28 | GGTATCTAGT | 1.02 ± 0.032
29 | GGTATCTGTT | 0.986 ± 0.016
30 | GGTATGAGTG | 0.9737 ± 0.006
31 | GGTATGTGTG | 1.03 ± 0.024
32 | GGTATTAGCT | 1.01 ± 0.013
33 | GGTATTAGGT | 1.01 ± 0.011
34 | GGTATTCGGT | 0.971 ± 0.04
35 | GGTATTGAAG | 0.999 ± 0.024
36 | GGTATTGTTT | 0.9881 ± 0.0066
37 | GGTATTTAGG | 1.02 ± 0.029
38 | GGTCAAATAA | 0.99 ± 0.042
39 | GGTCACTGCG | 0.9955 ± 0.0064
40 | GGTCAGCCGG | 1.02 ± 0.012
41 | GGTCAGTGGT | 1 ± 0.022
42 | GGTCAGTTAT | 0.99 ± 0.047
43 | GGTCATAGGT | 0.994 ± 0.022
44 | GGTCATATAG | 1.032 ± 0.0012
45 | GGTCATGGTG | 1.08 ± 0.024
46 | GGTCATTGGA | 1.09 ± 0.064
47 | GGTCCATTTT | 0.969 ± 0.017
48 | GGTCCCGGTG | 1.1 ± 0.013
49 | GGTCCGGCGG | 0.984 ± 0.057
50 | GGTCCGGGCG | 0.997 ± 0.024

Row | Sequence | switch fluorescence ratio
51 | GGTCCGGGTT | 1.006 ± 0.01
52 | GGTCCGGTTC | 1.01 ± 0.025
53 | GGTCCGTAGT | 1.04 ± 0.017
54 | GGTCCTGGGA | 1.02 ± 0.059
55 | GGTCCTGTCG | 1.03 ± 0.042
56 | GGTCGAAATT | 1.15 ± 0.31
57 | GGTCGAAGGG | 0.985 ± 0.051
58 | GGTCGAGAGG | 0.971 ± 0.03
59 | GGTCGCACGG | 1.02 ± 0.026
60 | GGTCGGCTAG | 0.9954 ± 0.0083
61 | GGTCGGGGAA | 1.01 ± 0.042
62 | GGTCGTGGCA | 0.969 ± 0.028
63 | GGTCGTTCGC | 1.01 ± 0.038
64 | GGTCGTTTTT | 1.044 ± 0.0029
65 | GGTCTAATCT | 1.04 ± 0.015
66 | GGTCTACTTT | 0.998 ± 0.021
67 | GGTCTAGCCT | 0.9858 ± 0.0066
68 | GGTCTAGGTG | 1.2586 ± 0.00091
69 | GGTCTCCGGC | 1.01 ± 0.065
70 | GGTCTCTTTG | 0.9663 ± 0.0084
71 | GGTCTGATTG | 1.01 ± 0.065
72 | GGTCTGCTTA | 0.9828 ± 0.0065
73 | GGTCTGTTTT | 0.992 ± 0.022
74 | GGTCTTAGTG | 0.982 ± 0.017
75 | GGTGAACGTG | 0.97 ± 0.041

Row | Sequence | switch fluorescence ratio
76 | GGTGACAGCT | 0.979 ± 0.023
77 | GGTGACTATT | 0.979 ± 0.037
78 | GGTGAGGGGT | 0.997 ± 0.035
79 | GGTGATAGCT | 0.987 ± 0.076
80 | GGTGATAGGG | 0.98 ± 0.036
81 | GGTGATGAGA | 0.991 ± 0.06
82 | GGTGATTCTG | 0.965 ± 0.038
83 | GGTGATTGCT | 0.967 ± 0.036
84 | GGTGCAGCGG | 0.982 ± 0.018
85 | GGTGCCAAGG | 0.959 ± 0.02
86 | GGTGCGACTC | 1.04 ± 0.05
87 | GGTGCGGGAT | 0.992 ± 0.043
88 | GGTGCGGTTG | 0.9975 ± 0.00035
89 | GGTGGACGGG | 0.974 ± 0.015
90 | GGTGGAGAGG | 0.929 ± 0.018
91 | GGTGGAGTTT | 0.987 ± 0.015
92 | GGTGGATCTT | 1.03 ± 0.015
93 | GGTGGATGGG | 0.987 ± 0.014
94 | GGTGGCATTT | 1.08 ± 0.011
95 | GGTGGCGTAC | 1.018 ± 0.01
96 | GGTGGGAAGT | 0.987 ± 0.021
97 | GGTGGGAGTT | 1.04 ± 0.032
98 | GGTGGGATTA | 1.014 ± 0.009
99 | GGTGGGGCGT | 1 ± 0.017
100 | GGTGGGGGAG | 1.01 ± 0.043
